Results on 2 substances are retold here after paper doi:10.1101/2021.11.26.470043.

The assay has as its target ACE-2 receptor on the surface of Vero-E6 cells (African green monkey (endogenous in Vero-E6)). Put plainly: flow cytometry on cells. In general terms: Flow cytometry measures light scatter and fluorescence of single cells or particles in a stream.

As to “commercially available recombinant RBD (from UniProt P0DTC2) (domain or fragment)”, the percent of cells bound to RBD was 78%.
In the case of “recombinant SARS-CoV-2 RBD (Pro330-Ser530) expressed in Sf9 insect cells (from UniProt P0DTC2 330-530) (domain or fragment)”, the percent of cells bound to RBD was determined as 60%.
